# Measured values published in patent US20250355001A1, “METHOD FOR DETECTING A TAU PROTEIN FRAGMENT IN A SAMPLE” (GTINVENT LIMITED, priority 2022, published 2025).
# B1: E2B7: dGAE (391E) specific clone, Table 9; SEQ ID NO: 254 (protein)
# scFv: QVQLQESGPSLVKPSQTLSLTCTVSGFSLTSWGVAWVRQAPGKALEWLGTMRSGGGTEYNPALKSRLSITRDTSKSQVSLSLSSVTTEDMAMYYCARGYLSGIHYAWGRGLLVSVSSEGKSSGASGESKVDDQAVLTQLSSVSGSLGQRVSITCSGSSSNVGDGDYVGWFQQLPGSAPKLLIYSARNRASGVPDRFSGSRSGNTATLTITSLQAEDEADYYCASIDTSRSHIFGSGTRLTVLG
# modifications: E2B7 amino acid sequence
# B2: ME12: sheep-derived anti-tau clone, CDRs in Table 1 (protein)
# CDR 1: SNAVG
# CDR 2: GCSSDGKCYHNSALKS
# CDR 3: GFYSIYGYDYSGTIDY
# CDR 4: SGSSSNVGGGNSVG
# CDR 5: NTNSRPS
# CDR 6: VTGDSSTHDDL
# modifications: VHCDR1 ME12, NS3D9; VHCDR1 S1D2, S1H6, S2C3; VHCDR1 MC5, MD12; VHCDR1 3aA6, VHCDR1 CE3; VHCDR2 ME12; VHCDR3 ME12; VLCDR1 S1D12, ME12; VLCDR2 ME12; VLCDR3 ME12
# B3: S1D9: anti-tau clone, Table 2; SEQ ID NO: 413 (protein)
# scFv: QVQLQESGPSLVKPSQTLSLTCTVSGFSLTSNSVGWVRQAPGKAPEWVAGIDSDGEEGYNPALNSRLSITRDTSKNQVSLSLSRVTSEDTAVYYCGRTYRTDGYAYGYVQAIDYWGPGLLVTVSSEGKSSGASGESKVDDRVMLTQPPSVSGSPGQTVSITCSGSFIGISSVGWFQQLPGSGLRTVIFASDGRPSGVPDRFSNSKSGNTATLTISSLQAEDEADYFCGSSDRTQYTGVFGSGTRLTVLS
# modifications: S1D9 amino acid sequence
# B4: S1F4: anti-tau clone, Table 2; SEQ ID NO: 414 (protein)
# scFv: QVQLQESGPSLVKPSQTLSLTCTVSGFSLSSNSVGWVRQAPGKAPEWVAGIDTDGEEGYNPALNSRLSITRDTSKSQVSLSLSSVTSEDTAVYYCVRSYRADGLAYGYVQAIDYWGPGLLLTISSEGKSSGASGESKVDDQAVVTQPSSVSGSLGQRVSITCSGSFIGISSVGWFQQLPGSGLRTVIVASDGRPSGVPDRFSNSKSGNTATLTISSLQAEDEADYFCGSSDRTQYTGVFGSGTRLTVLG
# modifications: S1F4 amino acid sequence
# B5: S2C6: anti-tau clone, Table 2; SEQ ID NO: 416 (protein)
# scFv: QVQLQESGPSLVKPSQTLSLTCTVSGFSLISNSVGWVRQAPGKAPEWVAGIDTDGEEGYNPALKSQYAASDPDTSKSQVSLSLSSVTSEDTAVYYCGRTYRTDGFAYGYVQAIDYWGPGLLLTISSEGKSSGASGESKVDDQAVLTQPSSVSGSLGQRVSITCSGSFIGISSVGWFQQLPGSGLRTIIVASDGRPSGVPDRFSMSKSGNTATLTISSLQAEDEADYFCGSSDRTQYTGVFGSGTRLTVLG
# modifications: S2C6 amino acid sequence
# System: hT40, dGA, dGAE and truncated tau fragments
# Experiment: Binding ELISA / epitope mapping of anti-tau scAbs with truncated tau proteins and 13mer peptides
# Design: species or system human
# Settings: for Tau proteins/fragments with positive scAb reactivity: binding ELISA; for Shortest region bound on hT40: incl. 13mer peptides; for Epitope: residue numbers of SEQ ID NO: 1 (hT40), CDR Tables 1-11
# Experimental: A series of binding ELISA was performed using various truncated versions of the tau protein and 13mer peptide libraries spanning the entire hT40 molecule for mapping the epitopes of anti-tau scAbs (Full list of protein antigens used is given in Table 14). In general, ELISA plates were coated with 1 μg/ml hT40 or dGA or dGAE or other truncated versions of the protein and in the case of biotinylated peptides, plates were coated with 5 μg/ml Streptavidin followed by 1 μg/ml biotinylated peptide. The plates were blocked with 2% MPBS and scAb samples added at desired starting concentrations and double diluted across the plate. Binding was detected using anti-Human C Kappa HRP conjugated secondary antibody and the resulting immunoreaction was developed and absorbance values measured as described above.
# Selected E specific scAbs and their specific binding to dGAE is shown below (FIG. 8A-E).
# Similarly, dGA binding ‘NS’, ‘S’ and ‘M’ group scAbs were subjected to further antigen binding ELISA using shorter tau proteins and biotinylated 13mer peptides as shown below (FIG. 10A-F) and (FIG. 11A-R).
Molecule,"cross-reactivity using hT40, dGA and dGAE antigens (ELISA, 'E' group scAbs)","Tau proteins/fragments with positive scAb reactivity (Table 15, residue numbers of hT40)","Tau proteins/fragments with positive scAb reactivity (Table 16, NS, S and M clones)","Shortest region bound on hT40 (Table 16, NS, S and M clones)",Epitope
B1,specific dGAE binding,297-391 (dGAE),–,–,–
B2,–,–,"hT40, 297-390 (dGA), 297-391 (dGAE), 341-353, 337-349, 339-351",337-355,337-355
B3,–,–,"hT40, 297-390 (dGA), 297-391 (dGAE)",367-379,367-379
B4,–,–,"hT40, 297-390 (dGA), 297-391 (dGAE), 369-390, 369-391",367-379,367-379
B5,–,–,"hT40, 297-390 (dGA), 297-391 (dGAE), 369-390, 369-391",367-379,367-379
